According to the supplement of paper PMC10065799, “High-throughput profiling of sequence recognition by tyrosine kinases and SH2 domains using bacterial peptide display” (eLife, 2023):

Key:
SHP2-C SH2 = experiment: SH2 binding enrichment of the phosphorylated peptide, bacterial display (enrichment ratio); higher = better substrate or ligand; peptides without Tyr show the background
Grb2 SH2 = Grb2 SH2 (UniProt P62993); experiment: as above
c-Src SH2 = experiment: as above
FGFR3 = FGFR3 (UniProt P22607); experiment: phosphorylation enrichment, bacterial display (enrichment ratio); higher = better substrate or ligand; peptides without Tyr show the background
Fer (mouse) = experiment: as above
MERTK = MERTK (UniProt Q12866); experiment: as above
c-Abl (mouse) = experiment: as above
Hck = Hck (UniProt P08631); experiment: as above
FGFR1 = FGFR1 (UniProt P11362); experiment: as above
Jak2 = Jak2 (UniProt O60674); experiment: as above
Fyn = Fyn (UniProt P06241); experiment: as above
EPHB2 = EPHB2 (UniProt P29323); experiment: as above
Fes = Fes (UniProt P07332); experiment: as above
c-Src = experiment: as above
EPHB1 = EPHB1 (UniProt P54762); experiment: as above
AncSZ = experiment: as above
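Throughout, for SH2 binding enrichment of the phosphorylated peptide, bacterial display: peptide library displayed on the E. coli surface as eCPX fusions, selected cells deep-sequenced, score is each peptide's frequency after selection divided by its frequency in the input.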
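Throughout, for phosphorylation enrichment, bacterial display: 11-residue human phosphosite peptides and single-mutation variants displayed on the E. coli surface, counted by deep sequencing, each peptide's frequency after selection divided by its frequency in the unselected input library; frequency after pTyr selection over input frequency; kinase dosed for 20-30% of maximal phosphorylation in three min.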

Sequence of Jak2 (O60674 whole entry, looked up): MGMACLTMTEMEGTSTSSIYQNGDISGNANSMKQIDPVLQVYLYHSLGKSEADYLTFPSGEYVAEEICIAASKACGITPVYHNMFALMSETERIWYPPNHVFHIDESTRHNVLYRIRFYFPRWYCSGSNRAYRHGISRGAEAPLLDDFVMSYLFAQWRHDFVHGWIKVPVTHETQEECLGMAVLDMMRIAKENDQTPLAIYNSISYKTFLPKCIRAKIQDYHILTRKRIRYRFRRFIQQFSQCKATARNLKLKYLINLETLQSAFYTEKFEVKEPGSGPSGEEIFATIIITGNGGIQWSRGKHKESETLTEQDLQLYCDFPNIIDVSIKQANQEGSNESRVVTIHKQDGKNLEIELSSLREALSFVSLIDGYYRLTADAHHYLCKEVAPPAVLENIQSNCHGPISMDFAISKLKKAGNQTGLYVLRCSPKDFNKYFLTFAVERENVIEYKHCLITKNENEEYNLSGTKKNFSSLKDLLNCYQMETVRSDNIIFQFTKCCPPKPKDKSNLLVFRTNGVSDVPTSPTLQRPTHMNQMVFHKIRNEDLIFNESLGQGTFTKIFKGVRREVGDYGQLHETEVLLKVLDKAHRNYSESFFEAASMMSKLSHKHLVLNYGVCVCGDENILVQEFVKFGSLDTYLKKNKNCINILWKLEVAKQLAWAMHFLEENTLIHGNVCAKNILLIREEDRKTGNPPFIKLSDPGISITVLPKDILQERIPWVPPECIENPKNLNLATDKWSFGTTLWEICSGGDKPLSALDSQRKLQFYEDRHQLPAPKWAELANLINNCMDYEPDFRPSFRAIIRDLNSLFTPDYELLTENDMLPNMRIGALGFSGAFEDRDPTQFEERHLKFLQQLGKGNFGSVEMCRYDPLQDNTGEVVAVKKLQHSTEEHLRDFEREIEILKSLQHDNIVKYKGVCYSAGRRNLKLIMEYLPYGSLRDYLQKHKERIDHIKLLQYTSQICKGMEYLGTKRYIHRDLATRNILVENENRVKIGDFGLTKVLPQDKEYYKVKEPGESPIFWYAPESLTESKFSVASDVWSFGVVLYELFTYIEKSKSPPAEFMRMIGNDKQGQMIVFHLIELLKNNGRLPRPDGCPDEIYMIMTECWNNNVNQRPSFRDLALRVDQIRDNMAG
Sequence of FGFR1 (P11362 whole entry, looked up): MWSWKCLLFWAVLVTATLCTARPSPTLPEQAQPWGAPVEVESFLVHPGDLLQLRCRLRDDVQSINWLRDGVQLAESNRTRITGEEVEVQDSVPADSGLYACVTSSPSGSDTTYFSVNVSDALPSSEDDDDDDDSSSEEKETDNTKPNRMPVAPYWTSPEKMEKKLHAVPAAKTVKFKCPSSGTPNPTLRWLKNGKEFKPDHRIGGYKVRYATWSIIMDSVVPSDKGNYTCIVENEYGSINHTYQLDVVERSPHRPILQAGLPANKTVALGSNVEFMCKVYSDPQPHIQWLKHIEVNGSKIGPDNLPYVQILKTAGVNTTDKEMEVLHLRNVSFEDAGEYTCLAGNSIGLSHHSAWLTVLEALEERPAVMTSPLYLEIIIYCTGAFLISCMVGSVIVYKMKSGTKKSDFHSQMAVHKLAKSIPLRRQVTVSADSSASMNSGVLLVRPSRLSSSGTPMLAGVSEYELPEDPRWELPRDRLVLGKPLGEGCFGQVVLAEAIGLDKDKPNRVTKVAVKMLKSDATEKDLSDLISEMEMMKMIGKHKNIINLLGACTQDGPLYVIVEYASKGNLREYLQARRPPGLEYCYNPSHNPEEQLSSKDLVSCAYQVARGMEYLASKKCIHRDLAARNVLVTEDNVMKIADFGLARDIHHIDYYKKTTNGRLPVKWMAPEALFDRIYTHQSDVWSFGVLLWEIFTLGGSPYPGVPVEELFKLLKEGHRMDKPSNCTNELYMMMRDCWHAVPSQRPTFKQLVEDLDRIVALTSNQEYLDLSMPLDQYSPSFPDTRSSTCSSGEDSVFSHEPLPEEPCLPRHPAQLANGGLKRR
Sequence of FGFR3 (P22607 whole entry, looked up): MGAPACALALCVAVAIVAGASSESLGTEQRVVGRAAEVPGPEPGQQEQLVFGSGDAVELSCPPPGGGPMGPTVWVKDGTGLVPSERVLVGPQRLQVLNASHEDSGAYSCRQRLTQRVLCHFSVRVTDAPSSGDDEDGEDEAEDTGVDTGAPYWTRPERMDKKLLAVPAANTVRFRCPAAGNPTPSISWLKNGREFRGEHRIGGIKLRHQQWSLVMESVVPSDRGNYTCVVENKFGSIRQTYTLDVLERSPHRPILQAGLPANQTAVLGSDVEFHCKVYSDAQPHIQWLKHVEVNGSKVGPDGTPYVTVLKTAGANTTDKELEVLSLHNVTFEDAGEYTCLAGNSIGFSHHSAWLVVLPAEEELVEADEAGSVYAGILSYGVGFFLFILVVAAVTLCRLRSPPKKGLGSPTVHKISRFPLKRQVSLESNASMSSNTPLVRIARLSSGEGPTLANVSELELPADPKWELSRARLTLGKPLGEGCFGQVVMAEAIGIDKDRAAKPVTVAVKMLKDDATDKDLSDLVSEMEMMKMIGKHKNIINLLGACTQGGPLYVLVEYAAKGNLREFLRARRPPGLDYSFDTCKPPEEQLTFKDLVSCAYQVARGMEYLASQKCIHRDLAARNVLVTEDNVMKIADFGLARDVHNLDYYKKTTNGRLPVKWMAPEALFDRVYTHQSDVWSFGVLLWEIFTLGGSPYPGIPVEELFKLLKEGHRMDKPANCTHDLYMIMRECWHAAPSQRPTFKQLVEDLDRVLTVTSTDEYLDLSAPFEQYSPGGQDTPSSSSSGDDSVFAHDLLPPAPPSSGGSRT
Sequence of EPHB2 (P29323 whole entry, looked up): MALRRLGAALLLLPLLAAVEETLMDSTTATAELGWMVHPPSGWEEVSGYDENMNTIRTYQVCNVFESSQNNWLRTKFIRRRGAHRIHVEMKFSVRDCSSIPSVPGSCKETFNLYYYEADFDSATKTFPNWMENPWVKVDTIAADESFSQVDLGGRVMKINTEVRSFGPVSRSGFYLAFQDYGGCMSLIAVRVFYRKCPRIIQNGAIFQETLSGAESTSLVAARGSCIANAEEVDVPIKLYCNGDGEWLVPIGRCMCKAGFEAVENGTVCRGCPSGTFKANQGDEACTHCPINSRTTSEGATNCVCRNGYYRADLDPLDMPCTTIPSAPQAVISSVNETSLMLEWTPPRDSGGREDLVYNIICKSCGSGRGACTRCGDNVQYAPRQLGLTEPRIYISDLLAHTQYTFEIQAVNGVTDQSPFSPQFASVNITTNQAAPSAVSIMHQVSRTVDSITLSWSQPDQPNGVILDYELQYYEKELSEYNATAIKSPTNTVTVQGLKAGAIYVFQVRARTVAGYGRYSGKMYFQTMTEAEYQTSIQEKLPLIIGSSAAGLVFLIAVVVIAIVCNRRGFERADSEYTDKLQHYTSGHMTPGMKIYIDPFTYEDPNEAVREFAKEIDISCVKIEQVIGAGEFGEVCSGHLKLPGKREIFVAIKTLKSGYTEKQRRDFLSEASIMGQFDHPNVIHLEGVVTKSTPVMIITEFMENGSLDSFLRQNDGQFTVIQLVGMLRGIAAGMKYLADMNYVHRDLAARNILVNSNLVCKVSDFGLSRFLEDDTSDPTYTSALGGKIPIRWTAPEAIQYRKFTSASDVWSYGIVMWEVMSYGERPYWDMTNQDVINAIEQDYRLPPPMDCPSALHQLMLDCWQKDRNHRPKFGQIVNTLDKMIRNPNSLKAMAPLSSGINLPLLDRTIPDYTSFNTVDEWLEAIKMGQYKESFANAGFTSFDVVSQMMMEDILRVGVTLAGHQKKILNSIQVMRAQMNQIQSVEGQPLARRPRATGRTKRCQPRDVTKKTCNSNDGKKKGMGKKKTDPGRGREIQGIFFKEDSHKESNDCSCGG
Sequence of MERTK (Q12866 whole entry, looked up): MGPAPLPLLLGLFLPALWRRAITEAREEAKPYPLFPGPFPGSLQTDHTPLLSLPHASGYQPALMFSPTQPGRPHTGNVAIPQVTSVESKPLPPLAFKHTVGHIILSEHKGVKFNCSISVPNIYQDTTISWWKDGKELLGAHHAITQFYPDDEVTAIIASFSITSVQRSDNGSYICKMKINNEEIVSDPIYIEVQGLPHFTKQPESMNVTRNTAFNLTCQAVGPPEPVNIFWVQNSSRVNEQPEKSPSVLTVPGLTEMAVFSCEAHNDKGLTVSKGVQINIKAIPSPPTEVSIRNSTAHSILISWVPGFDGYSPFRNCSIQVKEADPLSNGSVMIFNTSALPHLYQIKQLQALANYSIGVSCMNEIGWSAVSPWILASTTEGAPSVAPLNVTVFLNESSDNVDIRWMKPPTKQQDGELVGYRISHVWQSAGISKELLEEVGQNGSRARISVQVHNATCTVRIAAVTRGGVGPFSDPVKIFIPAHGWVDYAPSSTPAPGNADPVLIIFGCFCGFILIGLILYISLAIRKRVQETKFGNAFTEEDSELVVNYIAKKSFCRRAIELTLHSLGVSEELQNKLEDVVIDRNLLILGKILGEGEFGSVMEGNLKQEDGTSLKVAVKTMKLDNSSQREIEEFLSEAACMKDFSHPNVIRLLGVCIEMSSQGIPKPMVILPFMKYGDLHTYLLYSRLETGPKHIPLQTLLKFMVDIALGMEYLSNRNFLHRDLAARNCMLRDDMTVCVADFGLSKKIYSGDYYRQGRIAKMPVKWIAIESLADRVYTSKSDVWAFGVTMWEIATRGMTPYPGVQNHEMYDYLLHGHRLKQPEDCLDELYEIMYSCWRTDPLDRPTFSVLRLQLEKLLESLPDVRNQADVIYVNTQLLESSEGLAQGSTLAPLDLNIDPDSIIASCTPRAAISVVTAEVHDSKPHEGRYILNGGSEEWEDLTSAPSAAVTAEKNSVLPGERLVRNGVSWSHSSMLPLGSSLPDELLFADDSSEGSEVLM
Sequence of Grb2 SH2 (P62993 whole entry, looked up): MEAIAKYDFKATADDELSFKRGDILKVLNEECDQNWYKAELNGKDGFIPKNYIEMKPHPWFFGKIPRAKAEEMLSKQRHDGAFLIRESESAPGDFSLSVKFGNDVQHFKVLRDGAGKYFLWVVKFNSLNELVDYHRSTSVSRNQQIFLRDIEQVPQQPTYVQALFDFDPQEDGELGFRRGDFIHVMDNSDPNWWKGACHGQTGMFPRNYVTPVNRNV

For HFGCVYFGTLL [MET_Y1093_H1094Y_YF], the SH2 binding enrichment (SHP2-C SH2) was 0.714, the SH2 binding enrichment (Grb2 SH2) was 0.857 and the SH2 binding enrichment (c-Src SH2) was 0.535. For the same sequence, the phosphorylation enrichment (FGFR3) was 1.51, the phosphorylation enrichment (Fer (mouse)) was 0.458 and the phosphorylation enrichment (MERTK) was 0.528. The phosphorylation enrichment (c-Abl (mouse)) was 0.695, the phosphorylation enrichment (Hck) was 0.763 and the phosphorylation enrichment (FGFR1) was 1.01. It also gave a phosphorylation enrichment (Jak2) of 1.18, a phosphorylation enrichment (Fyn) of 0.899 and a phosphorylation enrichment (EPHB2) of 0.699. The phosphorylation enrichment (Fes) was 1.23, the phosphorylation enrichment (c-Src) was 3.7 and the phosphorylation enrichment (EPHB1) was 0.917. It also gave a phosphorylation enrichment (AncSZ) of 1.77.

For PLLEFYWDIFT [CDAN1_Y713_R714W_YF], the SH2 binding enrichment (SHP2-C SH2) was 0.719, the SH2 binding enrichment (Grb2 SH2) was 0.926 and the SH2 binding enrichment (c-Src SH2) was 0.527. For the same sequence, the phosphorylation enrichment (FGFR3) was 0.94, the phosphorylation enrichment (Fer (mouse)) was 0.527 and the phosphorylation enrichment (MERTK) was 0.284. For the same sequence, the phosphorylation enrichment (c-Abl (mouse)) was 0.828, the phosphorylation enrichment (Hck) was 0.458 and the phosphorylation enrichment (FGFR1) was 0.428. For the same sequence, the phosphorylation enrichment (Jak2) was 1.17, the phosphorylation enrichment (Fyn) was 0.448 and the phosphorylation enrichment (EPHB2) was 0.645. For the same sequence, the phosphorylation enrichment (Fes) was 1.2, the phosphorylation enrichment (c-Src) was 0.412 and the phosphorylation enrichment (EPHB1) was 0.833. The phosphorylation enrichment (AncSZ) was 0.971.

Work on ERDYTYDELLN [EIF2S2_Y176_E177D] yielded an SH2 binding enrichment (SHP2-C SH2) of 0.688, an SH2 binding enrichment (Grb2 SH2) of 0.786 and an SH2 binding enrichment (c-Src SH2) of 1.83. For the same sequence, the phosphorylation enrichment (FGFR3) was 0.791, the phosphorylation enrichment (Fer (mouse)) was 0.506 and the phosphorylation enrichment (MERTK) was 0.498. For the same sequence, the phosphorylation enrichment (c-Abl (mouse)) was 0.887, the phosphorylation enrichment (Hck) was 1.04 and the phosphorylation enrichment (FGFR1) was 0.558. It also gave a phosphorylation enrichment (Jak2) of 1.21, a phosphorylation enrichment (Fyn) of 0.631 and a phosphorylation enrichment (EPHB2) of 0.682. The phosphorylation enrichment (Fes) was 1.27, the phosphorylation enrichment (c-Src) was 0.661 and the phosphorylation enrichment (EPHB1) was 0.742. For the same sequence, the phosphorylation enrichment (AncSZ) was 1.17.

TRDVNYGWTIR [MT-CYB_Y75_I78T] was tested, and the SH2 binding enrichment (SHP2-C SH2) was 1.02, the SH2 binding enrichment (Grb2 SH2) was 1.29 and the SH2 binding enrichment (c-Src SH2) was 0.515. The phosphorylation enrichment (FGFR3) was 0.636, the phosphorylation enrichment (Fer (mouse)) was 0.588 and the phosphorylation enrichment (MERTK) was 0.495. For the same sequence, the phosphorylation enrichment (c-Abl (mouse)) was 0.534, the phosphorylation enrichment (Hck) was 0.478 and the phosphorylation enrichment (FGFR1) was 0.46. For the same sequence, the phosphorylation enrichment (Jak2) was 0.834, the phosphorylation enrichment (Fyn) was 0.441 and the phosphorylation enrichment (EPHB2) was 0.648. It also gave a phosphorylation enrichment (Fes) of 0.969, a phosphorylation enrichment (c-Src) of 0.492 and a phosphorylation enrichment (EPHB1) of 0.544. For the same sequence, the phosphorylation enrichment (AncSZ) was 1.39.

With SLFPGYNFRFA [P2RX7_Y291_YF] the SH2 binding enrichment (SHP2-C SH2) was 0.962, the SH2 binding enrichment (Grb2 SH2) was 1.24 and the SH2 binding enrichment (c-Src SH2) was 0.819. For the same sequence, the phosphorylation enrichment (FGFR3) was 0.736, the phosphorylation enrichment (Fer (mouse)) was 0.511 and the phosphorylation enrichment (MERTK) was 0.475. The phosphorylation enrichment (c-Abl (mouse)) was 0.508, the phosphorylation enrichment (Hck) was 0.476 and the phosphorylation enrichment (FGFR1) was 0.433. For the same sequence, the phosphorylation enrichment (Jak2) was 0.673, the phosphorylation enrichment (Fyn) was 0.472 and the phosphorylation enrichment (EPHB2) was 0.46. For the same sequence, the phosphorylation enrichment (Fes) was 0.953, the phosphorylation enrichment (c-Src) was 0.502 and the phosphorylation enrichment (EPHB1) was 0.614. The phosphorylation enrichment (AncSZ) was 0.844.

Sequence INMKKYCKKDF [NTN1_Y490_YF] has an SH2 binding enrichment (SHP2-C SH2) of 1.13, an SH2 binding enrichment (Grb2 SH2) of 0.953 and an SH2 binding enrichment (c-Src SH2) of 0.807. It also gave a phosphorylation enrichment (FGFR3) of 0.757, a phosphorylation enrichment (Fer (mouse)) of 0.572 and a phosphorylation enrichment (MERTK) of 0.659. It also gave a phosphorylation enrichment (c-Abl (mouse)) of 0.734, a phosphorylation enrichment (Hck) of 0.437 and a phosphorylation enrichment (FGFR1) of 0.56. It also gave a phosphorylation enrichment (Jak2) of 0.689, a phosphorylation enrichment (Fyn) of 0.438 and a phosphorylation enrichment (EPHB2) of 0.522. It also gave a phosphorylation enrichment (Fes) of 0.948, a phosphorylation enrichment (c-Src) of 0.491 and a phosphorylation enrichment (EPHB1) of 0.45. It also gave a phosphorylation enrichment (AncSZ) of 0.854.

EMTAEYACTRK [ACAD9_Y325] showed an SH2 binding enrichment (SHP2-C SH2) of 1.03, an SH2 binding enrichment (Grb2 SH2) of 1.22 and an SH2 binding enrichment (c-Src SH2) of 0.692. It also gave a phosphorylation enrichment (FGFR3) of 0.551, a phosphorylation enrichment (Fer (mouse)) of 0.497 and a phosphorylation enrichment (MERTK) of 0.457. It also gave a phosphorylation enrichment (c-Abl (mouse)) of 0.603, a phosphorylation enrichment (Hck) of 0.627 and a phosphorylation enrichment (FGFR1) of 0.397. It also gave a phosphorylation enrichment (Jak2) of 0.499, a phosphorylation enrichment (Fyn) of 0.434 and a phosphorylation enrichment (EPHB2) of 0.492. The phosphorylation enrichment (Fes) was 0.706, the phosphorylation enrichment (c-Src) was 0.412 and the phosphorylation enrichment (EPHB1) was 0.406. For the same sequence, the phosphorylation enrichment (AncSZ) was 0.703.

Work on ETKKQYNSFTF [TMED3_Y85_D86N_YF] yielded an SH2 binding enrichment (SHP2-C SH2) of 0.636, an SH2 binding enrichment (Grb2 SH2) of 0.65 and an SH2 binding enrichment (c-Src SH2) of 0.411. For the same sequence, the phosphorylation enrichment (FGFR3) was 0.454, the phosphorylation enrichment (Fer (mouse)) was 0.513 and the phosphorylation enrichment (MERTK) was 0.396. For the same sequence, the phosphorylation enrichment (c-Abl (mouse)) was 0.561, the phosphorylation enrichment (Hck) was 0.417 and the phosphorylation enrichment (FGFR1) was 0.366. For the same sequence, the phosphorylation enrichment (Jak2) was 0.719, the phosphorylation enrichment (Fyn) was 0.432 and the phosphorylation enrichment (EPHB2) was 0.475. It also gave a phosphorylation enrichment (Fes) of 0.711, a phosphorylation enrichment (c-Src) of 0.399 and a phosphorylation enrichment (EPHB1) of 0.442. The phosphorylation enrichment (AncSZ) was 0.64.
